# Measurements as given in the supplement of paper PMC10567573.
# ± gives the standard deviation.
# Assay: protein stability index of a GFP-peptide fusion (GPS, HEK-293T) (PSI 1-6); higher = more stable
# [1] = treatment: DMSO, c terminus: a fixed tail appended
# [2] = treatment: MLN4924 1 uM, 8 h, c terminus: a fixed tail appended
# 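Further: 24-mer peptide tiles fused after GFP, lentivirally expressed, FACS-sorted into six equal bins by GFP/DsRed ratio, decoded by Illumina sequencing, PSI is the read-weighted mean bin number.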
Sequence,protein stability index [1],protein stability index [2],"protein stability index (treatment: DMSO, c terminus: native)","protein stability index (treatment: MLN4924 1 uM, 8 h, c terminus: native)"
LHTFTPAGRPRAERRPRRVEAERP [FAM189A2],4.45 ± 0.21,4.45 ± 0.31,–,–
LIDVCKYLGSLQYRVWKKMLASVE [TRIM35],2.75 ± 0.43,2.25 ± 0.33,–,–
LKLMVNVCGHTLCESCVDLLFVRG [MNAT1],3.35 ± 0.92,3.27 ± 0.44,–,–
LKLRQQVIATATVYFKRFYARYSL [CCNC],2.85 ± 0.51,2.49 ± 0.18,–,–
LKMKEREEAWVKIENLAKANPQYT [PPP2R5C],3.4 ± 0.22,3.56 ± 0.19,–,–
LLAGGEKATMQNLNDRLASYLDKV [KRT17],2.84 ± 0.17,3.08 ± 0.31,–,–
LLAKNSKPIHTTILNPHVHVIGED [CAMK2B],3.2 ± 0.14,3.35 ± 0.22,–,–
LLDVKTRLEQEIATYRRLLEGEDA [KRT16],4.24 ± 0.15,4.2 ± 0.35,–,–
LLFNVKSPTDIQDSSIIRTTQDLF [RHOBTB3],2.37 ± 0.17,2.35 ± 0.32,–,–
LLPEKAFSDIPSPYLRGTIKMMQA [GFOD1],2.45 ± 0.23,2.81 ± 0.44,–,–
LLPLRTKVAKLLGYSTHADFVLEM [NLN],2.22 ± 0.43,2.32 ± 0.28,–,–
LLRDQFVKALEDFEDLCDRVFSDE [FAM9B],2.97 ± 0.29,3.17 ± 0.38,–,–
LLRFGVPSPSTLEPHPRPLLQREL [TNXB],3.08 ± 0.18,2.93 ± 0.23,–,–
LLSLVTFTFLSAKCLQGNADGDGG [PCDHGC5],3.46 ± 0.031,2.93 ± 0.44,–,–
LLVLLLYAPVGFCLLVLRLFLGIH [AUP1],2.21 ± 0.23,2.11 ± 0.2,–,–
LNPQLVQPAKKPLLWSDPADNKIV [ESRRG],3.78 ± 0.23,3.83 ± 0.047,–,–
LNQGFLQAKPEKAAVAQKPRSHFT [MYBL2],3.88 ± 0.34,4.06 ± 0.12,–,–
LPKLYLPTGPRRGRDELGGGRRPG [CDKN1A],4.05 ± 0.63,4.35 ± 0.38,–,–
LPQDPHTKKALEAHCRADELASQD [PPP2R5C],5.04 ± 0.2,5.17 ± 0.27,–,–
LPSNPCATTNACEKPIGSCVTNPC [KRT33B],4.29 ± 0.081,4.41 ± 0.17,–,–
LPVDDDSDLNVVASFDRRGEYIYT [RBBP5],3.41 ± 0.25,3.7 ± 0.28,–,–
LPYQRRYRERRDSDTYRCEERSPS [CLK3],4.77 ± 0.12,4.81 ± 0.22,–,–

Sequence,protein stability index [1],protein stability index [2],"protein stability index (treatment: DMSO, c terminus: native)","protein stability index (treatment: MLN4924 1 uM, 8 h, c terminus: native)"
LQAPFLPPKAPPPVIKIPECPSMG [RHOBTB1],3.6 ± 0.23,3.53 ± 0.57,–,–
LQFDPAPRRGEPHVTRRTPDYFL [PPP2CA],–,–,4.16 ± 0.3,4.18 ± 0.18
LQRPSYKFFFKSMDDDFGVVKEEI [DVL3],2.76 ± 0.29,2.85 ± 0.35,–,–
LRERVKKVKRSLRQARKKGRHLEL [CCDC3],3.36 ± 0.39,3.58 ± 0.71,–,–
LRKQLQPTHCKYEGPRKARRLWFA,2.43 ± 0.089,2.07 ± 0.25,–,–
LRLEEPRMDFAAKLMKNIRFPLMT [KLHL13],2.31 ± 0.29,2.43 ± 0.37,–,–
LRNFNSAKDMKKAVAHMKYMGKGS [MATN2],3.05 ± 0.37,3.43 ± 0.46,–,–
LRQLTAELAEHRCHPVERGIKSKE [PSD2],3.99 ± 0.26,4.2 ± 0.043,–,–
LRRGASVNRTTRTNSTPLRAACFD [FEM1A],3.81 ± 0.38,3.87 ± 0.31,–,–
LRYQETPGPREALSQLRVLCCEWL [ZNF232],2.13 ± 0.23,2.29 ± 0.22,–,–
LSEAYRVLSREQSRRSYDDQLRSG [DNAJC4],3.2 ± 0.3,3.03 ± 0.3,–,–
LSEEEEDEEEEEEEEEEGRFYYSE [KCNA4],5.2 ± 0.16,5.19 ± 0.39,–,–
LSPLRAASDPLLSSVSPAVSKASS [TFE3],4.47 ± 0.18,4.68 ± 0.067,–,–
LSRVKAAALSERGQAEEELIKAKS [LRRC45],5.01 ± 0.19,4.97 ± 0.061,–,–
LSSLGENPQRQGLLKTPWRAASAM [GCH1],2.8 ± 0.23,3.17 ± 0.13,–,–
LTCEFNNNHESLDEELHLLIISCR [FBXO39],2.27 ± 0.41,2.41 ± 0.39,–,–
LTILAKRKSLFDDKAVEIEELTYI [STX5],2.2 ± 0.35,2.22 ± 0.49,–,–
LTKSQVQDKPYKCTDCGKSFNHNA [ZNF8],3.32 ± 0.21,3.54 ± 0.27,–,–
LTTSQERELGIRQRDEQLRALQER [FBF1],5.02 ± 0.38,5.24 ± 0.29,–,–
LVPILIEAARNGKMKFVIGNGKNL [NSDHL],2.52 ± 0.3,2.36 ± 0.28,–,–
LVQHGVKPQEIVQVEIFSTNPDLY [IQUB],2.15 ± 0.21,2.32 ± 0.33,–,–
LWSQSYEDSSNQEEEGPSTFPDLE [MAGEA3],5.26 ± 0.21,5.06 ± 0.14,–,–
